Measurements reported in US5508261A, “Analogs of glycoprotein hormones having altered receptor binding specificity and activity and methods for preparing and using same” (University of Medicine & Dentistry of New Jersey, priority 1995, dated 1996).

What was measured:
[1] = tested on: rat luteal ovarian LH receptors; test: Inhibition of 125I-hCG binding to rat corpora luteal LH receptors (radioligand receptor assay); conditions: concentration of recombinant hCG for 50% inhibition of 125I-hCG binding divided by that of analog
Excerpt: (§1) The term "N.D." means not determined because concentrations of analog were not employed high enough to detect 50% inhibition.
(§2) An aliquot of the ligation mixture was taken and used to transform DH5-alpha strain E. coli. (obtained from Bethesda Research Laboratories, Gaithersburg, Md.). Plasmid DNAs from ampicillin-resistant DH5-alpha clones were screened by digestion with BglII (which is unique to vectors containing the cassette) and EcoRI (which cuts in the vector). Positive clones were identified by the presence of two fragments (approximately 0.8 Kbp and 2.9 Kbp). […] After the DNA was subjected to a dideoxy sequencing procedure to confirm that it encoded "GT" (Table 1), the plasmid DNA was then cotransfected into COS-7 cells (obtained from the American Type Culture Collection) along with pSVL-hCG-alpha, a pSVL-based plasmid encoding the human glycoprotein hormone alpha-subunit (10, 21), using a DEAE-dextran procedure (10).

[2] = tested on: bovine testes FSH receptors; test: Inhibition of 125I-hFSH binding to bovine testes tissue homogenates (radioligand receptor assay); conditions: concentration of recombinant hFSH for 50% inhibition of 125I-hFSH binding divided by that of analog
Excerpt: as §1, §2

Activity at LH RECEPTORS relative to that of hCG [1]: 0.53
Activity at FSH RECEPTORS relative to that of hFSH [2]: 0.18
B1: eCG: equine gonadotropin control (text calls the control eLH, equine lutropin) (protein)
chain: SRGPLRPLCRPINATLAAEKEACPICITFTTSICAGYCPSMVRVMPAALPAIPQPVCTYRELRFASIRLPGCPPGVDPMVSFPVALSCHCGPCQIKTTDCGVFRDQPLACAPQASSSSKDPPSQPLTSTSTPTPGASRRSSHPLPIKTS
